Measured values as given in article PMC12397386, “Structural basis of Fusobacterium nucleatum adhesin Fap2 interaction with receptors on cancer and immune cells” (Nature Communications, 2025).

Columns and labels:
[1] = molecular target: hTIGIT-ECD-Fc (human TIGIT extracellular domain with C-terminal Fc tag, Acro Biosystems #TIT-H5254) (human) (UniProt Q495A1); assay: SPR; Biacore 3000; hTIGIT-ECD-Fc immobilised on CM5 chip (3220 RU); Fap2-ECD injected at 52.5 to 368 nM; 25 mM HEPES-NaOH pH 7.5, 50 mM NaCl, 0.005% Tween-20; 25 °C; global 1:1 Langmuir fit
[2] = molecular target: TIGIT (Homo sapiens) (UniProt Q495A1); details: cited from earlier work
[3] = molecular target: fibronectin (Homo sapiens) (UniProt P02751); details: cited from earlier work
Sequence of fibronectin (Homo sapiens) (P02751 32-2477): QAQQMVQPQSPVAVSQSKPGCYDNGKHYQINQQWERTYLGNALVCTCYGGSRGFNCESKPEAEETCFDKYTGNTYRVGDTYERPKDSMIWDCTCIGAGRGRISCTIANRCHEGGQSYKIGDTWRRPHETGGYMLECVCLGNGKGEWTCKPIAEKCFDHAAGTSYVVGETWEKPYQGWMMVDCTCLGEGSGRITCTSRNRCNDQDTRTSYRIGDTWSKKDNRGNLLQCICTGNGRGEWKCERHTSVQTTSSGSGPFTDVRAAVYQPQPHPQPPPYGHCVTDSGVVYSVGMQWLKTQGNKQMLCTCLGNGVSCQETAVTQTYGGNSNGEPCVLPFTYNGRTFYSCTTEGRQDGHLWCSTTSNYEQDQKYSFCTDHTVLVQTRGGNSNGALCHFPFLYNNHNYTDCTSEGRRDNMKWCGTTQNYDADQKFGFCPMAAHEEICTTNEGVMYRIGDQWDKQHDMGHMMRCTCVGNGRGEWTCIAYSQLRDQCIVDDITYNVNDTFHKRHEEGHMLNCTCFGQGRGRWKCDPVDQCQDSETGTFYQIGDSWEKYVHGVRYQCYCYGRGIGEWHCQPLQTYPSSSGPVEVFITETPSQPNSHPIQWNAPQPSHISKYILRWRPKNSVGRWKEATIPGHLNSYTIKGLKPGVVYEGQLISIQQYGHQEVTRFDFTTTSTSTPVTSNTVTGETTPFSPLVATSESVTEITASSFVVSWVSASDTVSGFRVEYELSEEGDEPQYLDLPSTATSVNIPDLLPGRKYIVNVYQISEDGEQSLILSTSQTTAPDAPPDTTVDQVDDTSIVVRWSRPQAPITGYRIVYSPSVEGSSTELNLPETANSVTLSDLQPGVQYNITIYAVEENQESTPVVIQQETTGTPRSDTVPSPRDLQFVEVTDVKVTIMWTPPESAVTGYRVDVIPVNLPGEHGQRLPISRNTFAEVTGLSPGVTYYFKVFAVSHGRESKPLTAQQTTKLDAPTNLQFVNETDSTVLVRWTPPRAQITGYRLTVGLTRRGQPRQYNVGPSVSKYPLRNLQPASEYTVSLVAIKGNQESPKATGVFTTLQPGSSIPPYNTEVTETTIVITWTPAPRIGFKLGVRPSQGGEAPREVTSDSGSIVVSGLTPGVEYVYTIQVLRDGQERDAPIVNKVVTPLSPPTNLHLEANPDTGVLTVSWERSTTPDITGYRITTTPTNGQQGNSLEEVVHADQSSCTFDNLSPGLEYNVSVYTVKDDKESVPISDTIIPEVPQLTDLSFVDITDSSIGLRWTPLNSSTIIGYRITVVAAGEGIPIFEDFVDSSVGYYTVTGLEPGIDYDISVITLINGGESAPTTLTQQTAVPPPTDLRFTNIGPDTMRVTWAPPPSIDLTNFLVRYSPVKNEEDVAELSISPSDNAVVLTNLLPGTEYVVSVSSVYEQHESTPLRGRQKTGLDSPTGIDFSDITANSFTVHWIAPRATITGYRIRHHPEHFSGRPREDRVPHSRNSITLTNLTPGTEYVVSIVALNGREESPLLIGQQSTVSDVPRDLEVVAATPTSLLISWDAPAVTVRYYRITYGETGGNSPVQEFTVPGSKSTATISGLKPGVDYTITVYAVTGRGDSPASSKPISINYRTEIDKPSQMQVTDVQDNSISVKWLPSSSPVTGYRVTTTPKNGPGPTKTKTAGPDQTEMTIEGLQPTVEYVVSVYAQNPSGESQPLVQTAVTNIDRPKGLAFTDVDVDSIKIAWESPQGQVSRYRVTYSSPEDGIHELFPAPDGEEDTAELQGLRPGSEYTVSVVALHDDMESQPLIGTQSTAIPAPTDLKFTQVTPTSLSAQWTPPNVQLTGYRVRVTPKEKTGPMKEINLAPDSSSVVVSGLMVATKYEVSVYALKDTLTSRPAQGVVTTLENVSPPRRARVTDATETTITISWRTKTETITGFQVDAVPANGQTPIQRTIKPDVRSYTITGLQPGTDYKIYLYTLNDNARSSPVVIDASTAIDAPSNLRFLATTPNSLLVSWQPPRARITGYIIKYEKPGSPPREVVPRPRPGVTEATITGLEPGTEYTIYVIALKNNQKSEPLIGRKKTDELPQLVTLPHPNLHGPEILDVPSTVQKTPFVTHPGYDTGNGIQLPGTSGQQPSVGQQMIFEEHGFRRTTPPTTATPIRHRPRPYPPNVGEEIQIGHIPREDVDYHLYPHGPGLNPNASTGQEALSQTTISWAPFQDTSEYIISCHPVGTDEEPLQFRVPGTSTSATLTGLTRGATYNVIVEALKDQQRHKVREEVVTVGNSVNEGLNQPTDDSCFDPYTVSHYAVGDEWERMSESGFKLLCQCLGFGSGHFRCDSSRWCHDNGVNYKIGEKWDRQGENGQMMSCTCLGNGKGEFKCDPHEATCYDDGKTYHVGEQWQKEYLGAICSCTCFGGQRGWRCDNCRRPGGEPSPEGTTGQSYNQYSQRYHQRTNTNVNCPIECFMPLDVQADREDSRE

[4] = molecular target: T1, Fap2 extracellular domain (Fap2-ECD), residues 42-3271, purified after release from the AIDA autotransporter (Fusobacterium nucleatum subsp. …, UniProt A0ABV3Y820 42-3271); assay: SPR; Biacore 3000; hTIGIT-ECD-Fc amine-coupled to a CM5 chip (3220 RU); Fap2-ECD injected at 52.5-368 nM; 25 mM HEPES-NaOH pH 7.5, 50 mM NaCl, 0.005% Tween-20; 25 °C; 1:1 Langmuir global fit; details: both partners purified
T1 construct: Linker GSA before and SAG after the His8 tag; what is left of the TEV site after cleavage follows it; Gene codon-optimised for E. coli; also called Fap2 WT; recombinant Fap2-ECD; not shown: His8, C-terminal, kept

Fap2 extracellular domain (Fap2-ECD, residues 42-3271) from Fusobacterium nucleatum subsp. nucleatum ATCC23726, wild type (domain or fragment)
Ka [1]: 1.72e+06 M⁻¹
Kd [1]: 583 nM
koff [1]: 0.0308 s⁻¹

Nectin-2 (from UniProt Q92692)
Kd [2]: 6000 nM

lipoprotein P4 (from UniProt P26093)
Kd [3]: 10 nM

B1: human TIGIT extracellular domain with C-terminal Fc tag (Acro Biosystems #TIT-H5254) (Fc fusion, UniProt Q495A1 22-141, looked up)
chain: MMTGTIETTGNISAEKGGSIILQCHLSSTTAQVTQVNWEQQDQLLAICNADLGWHISPSFKDRVAPGPGLGLTLQSLTVNDTGEYFCIYHTYPDGTYTGRIFLEVLESSVAEHGARFQIP
notes: TIGIT, human, extracellular domain; The text calls it glycosylated hTIGIT-ECD in the SPR; also called hTIGIT-ECD-Fc; hTIGIT-Fc; source: bought: Acro Biosystems, #TIT-H5254; not shown: Fc, C-terminal, kept
Kd [4]: ~600 nM
koff [4]: 0.03 ± 0.001 s⁻¹
